{
  "source": "patent US10548950B2",
  "about": "“Irisin-related cancer treatments” (STC.UNM, priority 2014, dated 2020)",
  "molecules": {"B1": {"name": "irisin: 112 aa peptide cleaved from FNDC5; term covers both non-modified (INM) and glycosylated (IM) irisin (protein)", "chain": "DSPSAPVNVTVRHLKANSAVVSWDVLEDEVVIGFAISQQKKDVRMLRFIQEVNTTTRSCALWDLEEDTEGIVHVQAISIQGQSPASEPVLFKTPREAEKMASKNKDEVTMKE", "modifications": "non-modified irisin", "notes": "112 aa peptide cleaved from FNDC5; term covers both non-modified (INM) and glycosylated (IM) irisin"}, "B2": {"name": "IM: human recombinant modified and active (glycosylated) irisin from PlexBio (protein, UniProt Q8NAU1 1-191, looked up)", "Irisin": "MQAARGGAGRPERPGRPGRGPERERERPPGAGAASPCAAPGLPAGGATIHPGSPSAWPPRARAALRLWLGCVCFALVQADSPSAPVNVTVRHLKANSAVVSWDVLEDEVVIGFAISQQKKDVRMLRFIQEVNTTTRSCALWDLEEDTEYIVHVQAISIQGQSPASEPVLFKTPREAEKMASKNKDEVTMKE", "modifications": "Irisin glycosylated"}},
  "key": {"[1]": {"tested_on": "caspase-3/7 activity in MDA-MB-231 cells", "experiment": "Caspase-3/7 activity (kinetic apoptosis reagent, Incucyte ZOOM)", "type": "cell-based, Human", "settings": "MDA-MB-231, various concentrations, 24 hours", "from_the_text": "Cells were co-treated as previously described (N=12) with a kinetic caspase-3/7 apoptosis reagent from Essen Bioscience (Ann Arbor, Mich.). Caspase-3/7 activity was indicated by mean green fluorescence measured by the Incucyte ZOOM as described above."}, "[2]": {"tested_on": "MDA-MB-231 cells", "experiment": "Doxorubicin sensitivity: cell viability (WST-1) with Dox with or without irisin", "type": "cell-based, Human", "settings": "24 hours", "procedure": "Cells were seeded overnight at a density of 5,000 cells/well, treated with or without varying concentrations of IM or INM (from 0.625 nM to 20 nM) (N=12). Cells were then incubated for 1 hour in medium containing 10% WST-1 cell proliferation reagent from Roche (Indianapolis, Ind.) and fluorescence was measured using a Wallac Victor3V 1420 Multilabel Counter from PerkinElmer (Waltham, Mass.). These methods were repeated with varying concentrations (from 0.156 μM to 10 μM) of the antineoplastic Doxorubicin (Dox) from Sigma (St. Louis, Mo.) dissolved in DMSO (using 0.1% for all treatments including control) with 2 nM IM or INM for 24 hours (N=8). At 24 hours, Dox uptake was measured using phase-contrast and fluorescence (N=24). Treatment concentrations and duration were determined empirically through pilot experiments and from previously published observations for Dox.^20"}, "[3]": {"tested_on": "obesity-related cancer cells", "settings": "Moon et al., MTT endpoint assay; cited from earlier work"}, "[4]": {"tested_on": "malignant and non-malignant breast epithelial cell", "experiment": "Cell metabolism (data not shown)", "type": "cell-based, Human", "settings": "malignant and non-malignant cells"}, "[5]": {"tested_on": "MDA-MB-231 cells", "experiment": "Cell viability (WST-1) after irisin treatment for 24 hours", "type": "cell-based, Human", "settings": "0.625 nM to 20 nM, compared with control", "procedure": "(§1) Human non-malignant breast epithelial cells (MCF-10a), malignant breast epithelial cells (MCF-7), and malignant aggressive breast epithelial cells (MDA-MB-231) were purchased from American Type Culture Collection (Manassas, Va.). Cells were maintained under standard conditions (37° C. in a 5% CO2) using growth media as described in Supporting Information Table 1. Cells were treated with either human recombinant non-modified irisin (INM) from Cayman Chemical (Ann Arbor, Mich.) or human recombinant modified and active (glycosylated) irisin (IM) from PlexBio (San Francisco, Calif.) at concentrations ranging from 0.625 nM to 20 nM dissolved in culture media for 24 hours. Concentrations of irisin were determined empirically through pilot experiments based on and previously published observations.^9 MDA-MB-231 cells were labeled with red fluorescent protein (RFP) by lentiviral-transfection using CytoLight Red vector from Essen Bioscience (Ann. Arbor, Mich.). […]\n(§2) Cells were seeded overnight at a density of 5,000 cells/well, treated with or without varying concentrations of IM or INM (from 0.625 nM to 20 nM) (N=12). Cells were then incubated for 1 hour in medium containing 10% WST-1 cell proliferation reagent from Roche (Indianapolis, Ind.) and fluorescence was measured using a Wallac Victor3V 1420 Multilabel Counter from PerkinElmer (Waltham, Mass.). […]"}, "[6]": {"tested_on": "MCF-10a cells", "experiment": "Cell viability (WST-1) after irisin treatment for 24 hours", "type": "cell-based, Human", "settings": "0.625 nM to 20 nM, 24 hours post treatment", "procedure": "as §1, §2"}, "[7]": {"tested_on": "NFκB activity in MDA-MB-231 cells", "experiment": "NFκB-GFP reporter system", "type": "cell-based, Human", "settings": "MDA-MB-231, 24 hours", "procedure": "Cells were transfected with a NFκB GFP-linked reporter system from Qiagen (Valencia, Calif.) before treatment with IM, INM, or TNF-α from R and D Systems (Minneapolis, Minn.) at various concentrations for 24 hours (N=12). NFκB activity was indicated by mean fluorescence measured by the Incucyte ZOOM as described above."}, "[8]": {"tested_on": "RFP MDA-MB-231 cells", "experiment": "Cell proliferation by automated red object counting (Incucyte ZOOM)", "type": "cell-based, Human", "settings": "2 nM, 24 hours, compared with control", "procedure": "as §1\nRFP MDA-MB-231 cells were seeded overnight in 96-well plates at a density of 5,000 cells/well and treated with or without irisin at 2 nM (IM or INM) (N=64). Cell proliferation was measured by automated red object counting optimized for MDA-MB-231 cells using the Incucyte ZOOM live content imaging from Essen Bioscience (Ann Arbor, Mich.), measured every hour for 24 hours. […]"}},
  "data": [
    {"molecule": "TNF-α [reference compound]", "values": [
      {"measurement": "Caspase-3/7 activity", "setting": "[1]", "value": "significantly elevated"}
    ]},
    {"molecule": "COc1cccc2c1C(=O)c1c(O)c3c(c(O)c1C2=O)C[C@@](O)(C(=O)CO)C[C@@H]3O[C@H]1C[C@H](N)[C@H](O)[C@H](C)O1", "note": "[Dox, Doxorubicin, reference compound]", "values": [
      {"measurement": "Cell viability, Dox treatment alone", "setting": "[2]; MDA-MB-231, Dox 100 nM or 1.0 μM", "value": "not"},
      {"measurement": "Cell viability, Dox treatment alone", "setting": "[2]; MDA-MB-231, Dox 10 μM", "value": "reduced cell viability"}
    ]},
    {"molecule": "B1", "values": [
      {"measurement": "Cell proliferation in obesity-related cancer cells", "setting": "[3]", "value": "no significant affect on cell proliferation"},
      {"measurement": "Breast epithelial cell metabolism", "setting": "[4]", "value": "not significantly altered"}
    ]},
    {"molecule": "B2", "values": [
      {"measurement": "Cell viability of MDA-MB-231 cells", "setting": "[5]", "value": "unaffected"},
      {"measurement": "Cell viability of MCF-10a cells", "setting": "[6]", "value": "decreased at the highest tested dose"},
      {"measurement": "Enhancement of Dox killing by irisin", "setting": "[2]; MDA-MB-231, 2 nM irisin with Dox 100 nM to 10 μM", "value": "significantly enhanced Dox killing at 1.0 μM"},
      {"measurement": "NFκB activity", "setting": "[7]", "value": "did not alter NFκB activity"},
      {"measurement": "Cell proliferation of MDA-MB-231 cells", "setting": "[8]", "value": "did not alter cell proliferation"},
      {"measurement": "Caspase-3/7 activity", "setting": "[1]", "value": "failed to activate caspase-3/7 activity"}
    ]}
  ]
}
